Measurements taken from patent publication US20200131230A1 (published 2020).
Like-named read-outs stand apart in the source and are kept apart here. Positions of bridges follow the written chain, without caps; N, C: chain ends. Non-standard residues stand in square brackets, D forms with d. 2Nal = N[C@@H](Cc1ccc2ccccc2c1)C(=O)O; Pen = CC(C)(S)[C@H](N)C(=O)O; Phg = N[C@H](C(=O)O)c1ccccc1; Nle = CCCC[C@H](N)C(=O)O; HCt = not defined here

Key:
[1] = biological target: T1, Thrombospondin human platelet (Calbiochem, 605225) (human, UniProt P07996 19-1170); assay: cell-based or functional assay
T1 sequence (P07996 19-1170 limits assumed): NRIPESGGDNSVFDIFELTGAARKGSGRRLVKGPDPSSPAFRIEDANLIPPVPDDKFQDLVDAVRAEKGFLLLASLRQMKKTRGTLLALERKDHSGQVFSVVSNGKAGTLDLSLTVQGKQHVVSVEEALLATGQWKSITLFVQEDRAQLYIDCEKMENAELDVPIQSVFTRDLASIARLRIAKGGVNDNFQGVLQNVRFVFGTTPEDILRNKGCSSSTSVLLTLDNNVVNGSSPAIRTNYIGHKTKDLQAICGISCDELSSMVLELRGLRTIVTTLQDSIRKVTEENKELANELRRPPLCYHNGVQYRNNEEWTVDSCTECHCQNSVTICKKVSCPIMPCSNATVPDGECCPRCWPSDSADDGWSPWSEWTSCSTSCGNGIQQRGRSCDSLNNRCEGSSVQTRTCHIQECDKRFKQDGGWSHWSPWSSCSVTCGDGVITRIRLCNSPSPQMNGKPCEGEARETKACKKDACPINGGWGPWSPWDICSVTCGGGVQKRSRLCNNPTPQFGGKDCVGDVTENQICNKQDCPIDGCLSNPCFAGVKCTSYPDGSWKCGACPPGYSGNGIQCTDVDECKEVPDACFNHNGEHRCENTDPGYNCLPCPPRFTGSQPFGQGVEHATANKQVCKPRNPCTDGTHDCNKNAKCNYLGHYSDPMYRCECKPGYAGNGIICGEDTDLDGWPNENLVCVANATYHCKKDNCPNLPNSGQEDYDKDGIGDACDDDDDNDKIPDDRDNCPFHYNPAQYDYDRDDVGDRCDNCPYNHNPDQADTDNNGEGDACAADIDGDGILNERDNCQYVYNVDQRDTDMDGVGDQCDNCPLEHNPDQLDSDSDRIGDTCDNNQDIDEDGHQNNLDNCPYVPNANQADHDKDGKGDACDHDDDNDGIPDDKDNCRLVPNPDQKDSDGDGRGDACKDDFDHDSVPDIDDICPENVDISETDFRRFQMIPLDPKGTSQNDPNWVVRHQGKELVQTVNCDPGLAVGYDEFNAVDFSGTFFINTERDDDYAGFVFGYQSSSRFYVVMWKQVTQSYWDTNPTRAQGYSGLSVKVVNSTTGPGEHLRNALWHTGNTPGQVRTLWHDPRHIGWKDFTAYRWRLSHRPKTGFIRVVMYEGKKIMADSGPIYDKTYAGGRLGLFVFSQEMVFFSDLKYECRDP

[2] = biological target: T1, Thrombospondin human platelet …; assay: cell-based or functional assay; remark: listed apart in the source

| Cell adhesion IC50 [1] [nM] | Cell adhesion IC50 [2] [nM] | Binder |
| --- | --- | --- |
| 19.5 |  | {CH2CO}-[2Nal]RSGHNW[Nle]VWVC-NH2 (thioether N-12; SMILES CCCC[C@@H]1NC(=O)[C@H](Cc2c[nH]c3ccccc23)NC(=O)[C@H](CC(N)=O)NC(=O)[C@H](Cc2c[nH]cn2)NC(=O)CNC(=O)[C@H](CO)NC(=O)[C@H](CCCNC(=N)N)NC(=O)[C@H](Cc2ccc3ccccc3c2)NC(=O)CSC[C@@H](C(N)=O)NC(=O)[C@H](C(C)C)NC(=O)[C@H](Cc2c[nH]c3ccccc23)NC(=O)[C@H](C(C)C)NC1=O) [Compound 100] |
| 3.9 |  | {CH2CO}-[2Nal]RSGKNWVVWVC-NH2 (thioether N-12; SMILES CC(C)[C@@H]1NC(=O)[C@H](Cc2c[nH]c3ccccc23)NC(=O)[C@H](C(C)C)NC(=O)[C@H](C(C)C)NC(=O)[C@H](Cc2c[nH]c3ccccc23)NC(=O)[C@H](CC(N)=O)NC(=O)[C@H](CCCCN)NC(=O)CNC(=O)[C@H](CO)NC(=O)[C@H](CCCNC(=N)N)NC(=O)[C@H](Cc2ccc3ccccc3c2)NC(=O)CSC[C@@H](C(N)=O)NC1=O) [Compound 98] |
| 23.8 |  | {CH2CO}-W[2Nal]ISGRDW[Nle]KWVC-NH2 (thioether N-13; SMILES CCCC[C@@H]1NC(=O)[C@H](Cc2c[nH]c3ccccc23)NC(=O)[C@H](CC(=O)O)NC(=O)[C@H](CCCNC(=N)N)NC(=O)CNC(=O)[C@H](CO)NC(=O)[C@H]([C@@H](C)CC)NC(=O)[C@H](Cc2ccc3ccccc3c2)NC(=O)[C@H](Cc2c[nH]c3ccccc23)NC(=O)CSC[C@@H](C(N)=O)NC(=O)[C@H](C(C)C)NC(=O)[C@H](Cc2c[nH]c3ccccc23)NC(=O)[C@H](CCCCN)NC1=O) [Compound 89] |
| 25.1 |  | {CH2CO}-F[2Nal]ISGKDW[Nle]RWVC-NH2 (thioether N-13; SMILES CCCC[C@@H]1NC(=O)[C@H](Cc2c[nH]c3ccccc23)NC(=O)[C@H](CC(=O)O)NC(=O)[C@H](CCCCN)NC(=O)CNC(=O)[C@H](CO)NC(=O)[C@H]([C@@H](C)CC)NC(=O)[C@H](Cc2ccc3ccccc3c2)NC(=O)[C@H](Cc2ccccc2)NC(=O)CSC[C@@H](C(N)=O)NC(=O)[C@H](C(C)C)NC(=O)[C@H](Cc2c[nH]c3ccccc23)NC(=O)[C@H](CCCNC(=N)N)NC1=O) [Compound 94] |
| 12.4 |  | {CH2CO}-[2Nal]RSGKNW[Nle][Phg]WVC-NH2 (thioether N-12; SMILES CCCC[C@@H]1NC(=O)[C@H](Cc2c[nH]c3ccccc23)NC(=O)[C@H](CC(N)=O)NC(=O)[C@H](CCCCN)NC(=O)CNC(=O)[C@H](CO)NC(=O)[C@H](CCCNC(=N)N)NC(=O)[C@H](Cc2ccc3ccccc3c2)NC(=O)CSC[C@@H](C(N)=O)NC(=O)[C@H](C(C)C)NC(=O)[C@H](Cc2c[nH]c3ccccc23)NC(=O)[C@H](c2ccccc2)NC1=O) [Compound 103] |

Continued, binder first:

| Binder | Cell adhesion IC50 [1] [nM] | Cell adhesion IC50 [2] [nM] |
| --- | --- | --- |
| {CH2CO}-[2Nal]ISGRDW[Nle]KWV[Pen]-NH2 (thioether N-12; SMILES CCCC[C@@H]1NC(=O)[C@H](Cc2c[nH]c3ccccc23)NC(=O)[C@H](CC(=O)O)NC(=O)[C@H](CCCNC(=N)N)NC(=O)CNC(=O)[C@H](CO)NC(=O)[C@H]([C@@H](C)CC)NC(=O)[C@H](Cc2ccc3ccccc3c2)NC(=O)CSC(C)(C)[C@@H](C(N)=O)NC(=O)[C@H](C(C)C)NC(=O)[C@H](Cc2c[nH]c3ccccc23)NC(=O)[C@H](CCCCN)NC1=O) [Compound 79] | 15 |  |
| {CH2CO}-[2Nal]ISG[3Hyp]NW[Nle]HWVC-NH2 (thioether N-12) [Compound 69] |  | 27.9 |
| {CH2CO}-[2Nal]ISG[HCt]DW[Nle]KWVC-NH2 (thioether N-12; reading uncertain) [Compound 74] |  | 20.7 |
| {CH2CO}-F[2Nal]ISGRDW[Nle]KWVC-NH2 (thioether N-13; SMILES CCCC[C@@H]1NC(=O)[C@H](Cc2c[nH]c3ccccc23)NC(=O)[C@H](CC(=O)O)NC(=O)[C@H](CCCNC(=N)N)NC(=O)CNC(=O)[C@H](CO)NC(=O)[C@H]([C@@H](C)CC)NC(=O)[C@H](Cc2ccc3ccccc3c2)NC(=O)[C@H](Cc2ccccc2)NC(=O)CSC[C@@H](C(N)=O)NC(=O)[C@H](C(C)C)NC(=O)[C@H](Cc2c[nH]c3ccccc23)NC(=O)[C@H](CCCCN)NC1=O) [Compound 87] | 15.8 |  |
| {CH2CO}-T[2Nal]ISGRDW[Nle]KWVC-NH2 (thioether N-13; SMILES CCCC[C@@H]1NC(=O)[C@H](Cc2c[nH]c3ccccc23)NC(=O)[C@H](CC(=O)O)NC(=O)[C@H](CCCNC(=N)N)NC(=O)CNC(=O)[C@H](CO)NC(=O)[C@H]([C@@H](C)CC)NC(=O)[C@H](Cc2ccc3ccccc3c2)NC(=O)[C@H]([C@@H](C)O)NC(=O)CSC[C@@H](C(N)=O)NC(=O)[C@H](C(C)C)NC(=O)[C@H](Cc2c[nH]c3ccccc23)NC(=O)[C@H](CCCCN)NC1=O) [Compound 85] | 15.5 |  |
| {CH2CO}-L[2Nal]ISGRDW[Nle]KWVC-NH2 (thioether N-13; SMILES CCCC[C@@H]1NC(=O)[C@H](Cc2c[nH]c3ccccc23)NC(=O)[C@H](CC(=O)O)NC(=O)[C@H](CCCNC(=N)N)NC(=O)CNC(=O)[C@H](CO)NC(=O)[C@H]([C@@H](C)CC)NC(=O)[C@H](Cc2ccc3ccccc3c2)NC(=O)[C@H](CC(C)C)NC(=O)CSC[C@@H](C(N)=O)NC(=O)[C@H](C(C)C)NC(=O)[C@H](Cc2c[nH]c3ccccc23)NC(=O)[C@H](CCCCN)NC1=O) [Compound 82] | 29.9 |  |
